A short description of this data set: protein stability index of a GFP-peptide fusion (GPS, HEK-293T) (PSI 1-6); higher = more stable.
Where [1] appears, read: treatment: DMSO, c terminus: a fixed tail appended.
The mark [2] stands for this setting: treatment: MLN4924 1 uM, 8 h, c terminus: a fixed tail appended.

± gives the standard deviation.
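Note: 24-mer peptide tiles fused after GFP, lentivirally expressed, FACS-sorted into six equal bins by GFP/DsRed ratio, decoded by Illumina sequencing, PSI is the read-weighted mean bin number.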

For the sequence SGIGREGAKDSYDFFTEIKTITVK [ALDH8A1], the protein stability index amounted to 3.27 ± 0.37 under setting [1] and 3.28 ± 0.4 under setting [2].

Regarding LLSSVHVLDLEARGYIKPHVDSIK [ALKBH7], the protein stability index worked out at 2.97 ± 0.22 under setting [1] and 3.19 ± 0.33 under setting [2].

With NASRSLYPDAEDPQLGLDGPGEPD [PSD2], the protein stability index reads like this: under setting [1], 5.4 ± 0.2; under setting [2], 5.51 ± 0.22.

With RFFASSSLHHTSECTQMDHLGCMH [ALDH8A1], the protein stability index was found to be 2.87 ± 0.22 under setting [1] and 2.85 ± 0.32 under setting [2].

The sequence MLNEPLVREIVKECSNIPLSQPQQ [GAN] yielded a protein stability index under setting [1] of 3.85 ± 0.2 and a protein stability index under setting [2] of 3.95 ± 0.077.

For WERKEGGGGISCVLQDGCVFEKAG [CPOX], the protein stability index was found to be 3.82 ± 0.12 under setting [1] and 3.84 ± 0.24 under setting [2].

The sequence PRGYFHTFAGDTCQVALNFANEEE [WASL] gave a protein stability index under setting [1] of 4.43 ± 0.27 and a protein stability index under setting [2] of 4.34 ± 0.12.

For the sequence HLIKHRRTHTGEQPYTCSICRRNF [ZNF75A], the protein stability index by setting is: under setting [1], 2.56 ± 0.28; under setting [2], 2.99 ± 0.41.

QGPTPRYFTWDEVAQRSGCEERWL [FADS1] had a protein stability index under setting [1] of 3.43 ± 0.27 and a protein stability index under setting [2] of 3.39 ± 0.24.

In the case of KGEFKDEEETVTTKHIHITQATET [CLINT1], the protein stability index runs as follows: under setting [1], 5.42 ± 0.059; under setting [2], 5.4 ± 0.097.

KRESFLKYKCLLQQLYYTEADYED [IQUB]: the protein stability index is 2.2 ± 0.31 under setting [1] and 2.49 ± 0.3 under setting [2].

PRSPECRMIPGQPPASARRLSVPR [IRX6]: the protein stability index was determined as 4.47 ± 0.24 under setting [1] and 4.52 ± 0.12 under setting [2].

Consider ADGFGDNPFYHCLVAEILPAPGKL [SAT2], for which the protein stability index runs as follows: under setting [1], 2.27 ± 0.14; under setting [2], 2.37 ± 0.42.

Regarding VAREDVRESCPPLGLETLKITDFQ [CPXM2], the protein stability index is 3.96 ± 0.48 under setting [1] and 4.09 ± 0.33 under setting [2].

Turning to YTEQELKPLTLEALGHLGNDDSAD [DLC1], the protein stability index was 5.43 ± 0.12 under setting [1] and 5.43 ± 0.16 under setting [2].

In the case of RREQAAAAPFPSPAPASPAISVVG [TFE3], the protein stability index under setting [1] is 4.22 ± 0.35 and the protein stability index under setting [2] amounted to 4.24 ± 0.18.

For ERIEARLATLEGDDPSLRKTHSSP [PSD2], the protein stability index came out at 5.08 ± 0.37 under setting [1] and 5.09 ± 0.18 under setting [2].

In the case of FKTYISPWERAMGVDPQQKMELGI [MYOZ1], the protein stability index was found to be 2.42 ± 0.25 under setting [1] and 2.31 ± 0.38 under setting [2].

As for SVPLSLCVSSHLALPAQHHWESW [CLPTM1], the protein stability index by setting is: (treatment: DMSO, c terminus: native) 2.22 ± 0.1; (treatment: MLN4924 1 uM, 8 h, c terminus: native) 2.33 ± 0.25.

Take RSIQGHNDYICPATNQCTIDKNRR [ESR2]: the protein stability index by setting is: under setting [1], 3.84 ± 0.43; under setting [2], 4.21 ± 0.33.

For the sequence NVGRVHRVAKKLQSGLVWTNCWLI [ALDH8A1], the protein stability index came to 3.04 ± 0.41 under setting [1] and 2.61 ± 0.49 under setting [2].

Turning to YSFYMLTCIDMDWKVLTWLRYTLW [HACD3], the protein stability index was found to be 2.63 ± 0.85 under setting [1] and 2.65 ± 0.36 under setting [2].

As to IKPAPARAPACSPEAAAAQLRATA [FCHO1], the protein stability index turned out to be 3.53 ± 0.17 under setting [1] and 3.98 ± 0.13 under setting [2].

Take GLGHGSTSRGGPWVGTGLAAALAG [CPOX]: the protein stability index reads like this: under setting [1], 3.17 ± 0.21; under setting [2], 3.21 ± 0.29.

EVCCTSIVYATEKKQTKVEFPEAR [KCTD13]: the protein stability index is 3.88 ± 0.34 under setting [1] and 3.9 ± 0.28 under setting [2].

Regarding ITKAFHVRKANRIKECLSKGTFSD [RHOBTB1], the protein stability index is 2.7 ± 0.25 under setting [1] and 2.81 ± 0.51 under setting [2].

Take ASQPVKKQQENATSCSLELIGDLI [WDR41]: the protein stability index is, setting by setting: under setting [1], 3.47 ± 0.27; under setting [2], 3.45 ± 0.38.

For the sequence LSMERYALVFGVNTFIALALQTLL [SLC19A2], the protein stability index under setting [1] came to 3.04 ± 0.22 and the protein stability index under setting [2] turned out to be 2.93 ± 0.53.

Sequence AGSSNLPAPERTMAGLSKEPNTLR [VENTX] yielded a protein stability index under setting [1] of 4.48 ± 0.45 and a protein stability index under setting [2] of 4.71 ± 0.47.

On to KIDDLMQEITEQQDIAQEISEAFS [CHMP4C], for which the protein stability index reads like this: under setting [1], 4.75 ± 0.35; under setting [2], 4.67 ± 0.28.

As for QEELQIQAAVAAGDVHTVRKMLEQ [ASB7], the protein stability index runs as follows: under setting [1], 5 ± 0.39; under setting [2], 4.73 ± 0.21.

IGMHREMQVNPISKRMGPMTVVRM [RHOBTB1]: the protein stability index reads like this: under setting [1], 2.39 ± 0.44; under setting [2], 2.39 ± 0.32.

As to DAISWYQKKIGAYDQQIWEKSIEQ [PHTF1], the protein stability index is 2.77 ± 0.037 under setting [1] and 2.79 ± 0.34 under setting [2].

As to GEGKLSKRLKHKDDSVMKATQQAR [C22orf31], the protein stability index is, setting by setting: under setting [1], 4.64 ± 0.21; under setting [2], 4.81 ± 0.22.

On to RRYVASVSLHDRIYVIGGYDGRSR [KLHL12], for which the protein stability index is, setting by setting: under setting [1], 2.53 ± 0.31; under setting [2], 2.49 ± 0.5.

Consider DGKPFPELVLEQQLDREAQARHQL [PCDHGC5], for which the protein stability index came out at 4.92 ± 0.33 under setting [1] and 5.04 ± 0.27 under setting [2].

Turning to SLYILRGSARYDFSHEILRDEESF [ALKBH7], the protein stability index was 2.63 ± 0.21 under setting [1] and 2.2 ± 0.6 under setting [2].

QQMVASGTGAVVTSLFMTPLDVVK [SLC25A39] returned a protein stability index under setting [1] of 2.8 ± 0.17 and a protein stability index under setting [2] of 2.98 ± 0.21.

Take ESTTKESSEASQLEDAAGGDSASE [FBXO34]: the protein stability index runs as follows: under setting [1], 5.61 ± 0.34; under setting [2], 5.71 ± 0.12.

Regarding PYPVLFHNIFLLGGSSTSERCLLN [NLN], the protein stability index was found to be 3.23 ± 1.5 under setting [1] and 2.59 ± 0.8 under setting [2].

Take DLSSLRAKYPHDVVNHLSCDEARN [SPACA9]: the protein stability index under setting [1] turned out to be 4.47 ± 0.21 and the protein stability index under setting [2] was 4.33 ± 0.47.

Consider RDSLTQPDEEPMHYGNIMYDRRVI [RSPH3], for which the protein stability index is, setting by setting: under setting [1], 3.62 ± 0.45; under setting [2], 3.8 ± 0.23.

Regarding EILTCGRDGEPEPMQKLQDLVNRT [RBBP5], the protein stability index under setting [1] came to 4.01 ± 0.2 and the protein stability index under setting [2] stood at 3.78 ± 0.25.

Turning to SMLVAGNDRVQTIITQLEDSRRVT [TRIM63], the protein stability index by setting is: under setting [1], 3.81 ± 0.077; under setting [2], 3.72 ± 0.12.

The sequence EIVNYEPLGLEADMWSIGVITYIL [DAPK3] gave a protein stability index under setting [1] of 2.35 ± 0.48 and a protein stability index under setting [2] of 1.98 ± 0.27.

As for SGLRMVPEHRAFGSPFGLEEPQWV [ZFYVE21], the protein stability index is, setting by setting: under setting [1], 2.8 ± 0.14; under setting [2], 2.93 ± 0.26.

Take TNHIAPHARNGLSLKEEHRAYDLL [IKZF1]: the protein stability index under setting [1] worked out at 3.43 ± 0.28 and the protein stability index under setting [2] came to 3.64 ± 0.11.

Sequence RTRTATMLCAASGNPDPEITWFKD [PTPRD] yielded a protein stability index under setting [1] of 3.64 ± 0.15 and a protein stability index under setting [2] of 3.72 ± 0.35.

CEALEDSDGRQDSPAGELPKTVQQ [MATN2]: the protein stability index under setting [1] worked out at 5.55 ± 0.33 and the protein stability index under setting [2] was 5.56 ± 0.17.

In turn, SDINSLRRILDELTLCRSDLEAQM [KRT33B] had a protein stability index under setting [1] of 2.85 ± 0.36 and a protein stability index under setting [2] of 2.92 ± 0.38.

Turning to ESPSLTSTPVCSQKVVVTTPLHRD [MYBL2], the protein stability index came out at 4.83 ± 0.2 under setting [1] and 4.5 ± 0.11 under setting [2].

With LDPWFAGSSNVGINRWRFLLQCLE [CRY1], the protein stability index is 2.5 ± 0.36 under setting [1] and 2.54 ± 0.23 under setting [2].

Take ELKLEQQEAAERESKLLRDLSAAN [LRRC45]: the protein stability index stood at 4.62 ± 0.18 under setting [1] and 4.77 ± 0.23 under setting [2].

Values taken from the supplement of paper PMC10567573.
